Results on one substance are retold here after article PMC8196016.

The target of this assay is SARS-CoV-2 RBD trimer protein (SARS-CoV-2 | bacteriophage T4) (UniProt P0DTC2). Nature of the assay: SEC; Superdex 200 Increase 10/300 GL; four peaks, peak 3 taken as the trimer by expected size and Western blotting under non-reducing conditions.

As a reminder, the stoichiometry N is the number of molecules, sites or subunits per partner or assembly. As to “SARS-CoV-2 RBD trimer protein (from UniProt P0DTC2 319-541) (domain or fragment)”, the stoichiometry N is 3.
